In patent publication US20250376520A1 (SINGAPORE HEALTH SERVICES PTE, published 2025):

Target: human TRPM4 (transient receptor potential melastatin 4) channel, myc-tagged, expressed in HEK 293 cells (human, UniProt Q8TD43 1-1214)
Assay: cell-based or functional assay

Sequence of human TRPM4 (transient receptor potential melastatin 4) channel, myc-tagged, expressed in HEK 293 cells (Q8TD43 whole entry): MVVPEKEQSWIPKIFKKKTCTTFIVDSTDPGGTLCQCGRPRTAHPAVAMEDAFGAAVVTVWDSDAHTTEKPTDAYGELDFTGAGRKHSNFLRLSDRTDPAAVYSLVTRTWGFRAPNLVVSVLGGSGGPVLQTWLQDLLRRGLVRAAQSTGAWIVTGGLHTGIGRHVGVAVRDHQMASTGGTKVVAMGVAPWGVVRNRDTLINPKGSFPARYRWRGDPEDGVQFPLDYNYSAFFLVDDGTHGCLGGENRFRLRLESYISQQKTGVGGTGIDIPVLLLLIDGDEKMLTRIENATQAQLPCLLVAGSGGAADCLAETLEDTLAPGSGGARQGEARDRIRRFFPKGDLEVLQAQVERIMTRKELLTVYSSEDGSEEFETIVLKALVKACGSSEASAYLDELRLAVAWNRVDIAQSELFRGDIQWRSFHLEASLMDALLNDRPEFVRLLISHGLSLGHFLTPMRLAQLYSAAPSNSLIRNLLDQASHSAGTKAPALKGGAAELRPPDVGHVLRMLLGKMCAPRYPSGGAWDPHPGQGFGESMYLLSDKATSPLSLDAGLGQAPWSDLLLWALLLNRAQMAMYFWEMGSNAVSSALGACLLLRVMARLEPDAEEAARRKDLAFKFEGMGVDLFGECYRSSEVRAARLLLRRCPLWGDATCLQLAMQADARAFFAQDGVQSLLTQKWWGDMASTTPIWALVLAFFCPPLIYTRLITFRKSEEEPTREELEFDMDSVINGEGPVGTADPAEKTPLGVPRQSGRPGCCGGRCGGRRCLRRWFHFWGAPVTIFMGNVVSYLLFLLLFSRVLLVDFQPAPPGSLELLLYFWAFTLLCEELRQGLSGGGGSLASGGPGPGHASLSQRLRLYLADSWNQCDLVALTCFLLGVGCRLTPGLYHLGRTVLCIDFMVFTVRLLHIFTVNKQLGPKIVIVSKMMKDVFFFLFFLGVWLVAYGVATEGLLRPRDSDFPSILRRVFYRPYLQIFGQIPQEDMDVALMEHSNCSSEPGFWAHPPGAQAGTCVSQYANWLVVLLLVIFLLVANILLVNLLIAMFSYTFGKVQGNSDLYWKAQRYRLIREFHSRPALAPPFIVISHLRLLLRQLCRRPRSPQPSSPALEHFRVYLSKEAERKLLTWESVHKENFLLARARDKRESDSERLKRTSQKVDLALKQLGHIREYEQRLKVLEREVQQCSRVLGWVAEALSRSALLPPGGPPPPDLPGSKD

B1: humanized anti-TRPM4 antibody clone A6 (VH2 + VL1), renamed M4H (antibody, human IgG1, kappa, V domains shown)
VH: QVQLQESGPGLVKPSQTLSLTCTVSGYSITSDYAWNWIRQHPGKGLEWMGYLSYSGVTSYNPSLKGRVTISRDTSKNQFSLKLSSVTAADTAVYYCARKGTYYRYEGSYWYFDVWGQGTTVTVSS
VL: DIQMTQSPSSLSASVGDRVTITCHANQNIDVWLSWYQQKPGKAPKLLIYKTSNLHTGVPSRFSGSGSGTDFTFTISSLQPEDIATYYCQQGQSYPLTFGGGTKLEIKR
IC50, dose-dependent inhibition of hypoxia-induced TRPM4 current increase: 1.04 µg/mL
